Laboratory results reported in paper PMC6262466, “Towards Initial Indications for a Thiol-Based Redox Control of Arabidopsis 5-Aminolevulinic Acid Dehydratase” (Antioxidants, 2018).

Target: the molecule itself
Test: non-reducing SDS-PAGE with immunoblot; 0.5 uM purified His-ALAD preincubated in PBS, untreated or oxidized (1 mM H2O2); non-reducing 10% SDS polyacrylamide gel; anti-His blot

B1: recombinant His-tagged ALAD (ALAD1 without the predicted transit peptide) (enzyme, Arabidopsis thaliana, UniProt Q9SFH9 53-430, looked up)
chain: ASESGNGHAKKLGMSDAECEAAVAAGNVPEAPPVPPKPAAPVGTPIIKPLNLSRRPRRNRASPVTRAAFQETDISPANFVYPLFIHEGEEDTPIGAMPGCYRLGWRHGLVQEVAKARAVGVNSIVLFPKVPEALKNSTGDEAYNDNGLVPRTIRLLKDKYPDLIIYTDVALDPYSSDGHDGIVREDGVIMNDETVHQLCKQAVSQARAGADVVSPSDMMDGRVGAIRSALDAEGFQNVSIMSYTAKYASSFYGPFREALDSNPRFGDKKTYQMNPANYREALIEAREDEAEGADILLVKPGLPYLDIIRLLRDKSPLPIAAYQVSGEYSMIKAGGVLKMIDEEKVMMESLMCLRRAGADIILTYFALQAATCLCGEKR
notes: Arabidopsis thaliana ALAD1 (HEMB1; AT1G69740) without the predicted transit peptide (ChloroP); also called recombinant ALAD; purified ALAD; source: E. coli Rosetta(DE3), pET28a, purified (Ni-NTA agarose); not shown: His6, N-terminal, kept
  binding result: binds
